Key:
Assay in all cases: two-hybrid
[1] = target: DBDlexA-Cdc42(Q61L/C188S) (S. cerevisiae, UniProt P19073 1-191, Q61L | C188S)
[2] = target: DBDlexA-Cdc42(D118A/C188S) (S. cerevisiae, UniProt P19073 1-191, D118A | C188S)
DBDlexA-Cdc42(C188S) = DBDlexA-Cdc42(C188S) (S. cerevisiae, UniProt P19073 1-191, C188S)
Chain of DBDlexA-Cdc42(C188S) (P19073 whole entry C188S): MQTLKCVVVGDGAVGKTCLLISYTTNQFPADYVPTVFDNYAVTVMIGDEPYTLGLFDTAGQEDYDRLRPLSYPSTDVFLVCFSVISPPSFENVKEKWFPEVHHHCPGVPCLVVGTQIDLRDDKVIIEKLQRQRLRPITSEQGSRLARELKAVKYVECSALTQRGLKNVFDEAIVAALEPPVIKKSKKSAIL

Chain of DBDlexA-Cdc42(D118A/C188S) (P19073 whole entry D118A/C188S): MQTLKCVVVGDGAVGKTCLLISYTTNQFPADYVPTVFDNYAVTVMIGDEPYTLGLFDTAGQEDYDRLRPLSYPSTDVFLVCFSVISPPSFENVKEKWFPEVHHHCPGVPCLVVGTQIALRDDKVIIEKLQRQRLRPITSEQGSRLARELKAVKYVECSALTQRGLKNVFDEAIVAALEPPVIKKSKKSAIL
Chain of DBDlexA-Cdc42(Q61L/C188S) (P19073 whole entry Q61L/C188S): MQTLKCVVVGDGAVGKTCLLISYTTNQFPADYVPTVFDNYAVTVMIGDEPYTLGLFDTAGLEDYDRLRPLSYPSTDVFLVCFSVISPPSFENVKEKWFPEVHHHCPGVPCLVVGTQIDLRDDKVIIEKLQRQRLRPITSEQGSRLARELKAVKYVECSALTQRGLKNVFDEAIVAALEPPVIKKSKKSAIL

B1: ADGal4-BOI1(375-980) (domain or fragment, S. cerevisiae)
chain: ILDMTEVPNLFADKDIFESPGRAPKPPSYPSPVQPPQSPSFNNRYTNNNARFPPQTTYPPKNKNPTVYSNGLIPNSSTSSDNSTGKFKFPAMNGHDSNSRKTTLTSATIPSINTVNTDESLPAISNISSNATSHHPNRNSVVYNNHKRTESGSSFVDLFNRISMLSPVKSSFDEEETKQPSKASRAVFDSARRKSSYGHSRDASLSEMKKHRRNSSILSFFSSKSQSNPTSPTKQTFTIDPAKMTSHSRSQSNSYSHARSQSYSHSRKHSLVTSPLKTSLSPINSKSNIALAHSETPTSSNNKEAVSQPSEGKHKHKHKHKSKHKHKNSSSKDGSSEEKSKKKLFSSTKESFVGSKEFKRSPSELTQKSTKSILPRSNAKKQQTSAFTEGIRSITAKESMQTADCSGWMSKKGTGAMGTWKQRFFTLHGTRLSYFTNTNDEKERGLIDITAHRVLPASDDDRLISLYAASLGKGKYCFKLVPPQPGSKKGLTFTEPRVHYFAVENKSEMKAWLSAIIKATIDIDTSVPVISSYATPTIPLSKAQTLLEEARLQTQLRDAEEEEGRDQFGWDDTQNKRNSNYPIEQDQFETSDYLESSAFEYPGGRL
With B1 the beta-galactosidase activity [1] was 400 and the beta-galactosidase activity [2] was < 0.02.

B2: ADGal4-BOI1(731-980) (domain or fragment, S. cerevisiae)
chain: EFKRSPSELTQKSTKSILPRSNAKKQQTSAFTEGIRSITAKESMQTADCSGWMSKKGTGAMGTWKQRFFTLHGTRLSYFTNTNDEKERGLIDITAHRVLPASDDDRLISLYAASLGKGKYCFKLVPPQPGSKKGLTFTEPRVHYFAVENKSEMKAWLSAIIKATIDIDTSVPVISSYATPTIPLSKAQTLLEEARLQTQLRDAEEEEGRDQFGWDDTQNKRNSNYPIEQDQFETSDYLESSAFEYPGGRL
In the case of B2, the beta-galactosidase activity (DBDlexA-Cdc42(C188S)) is reported as 380, the beta-galactosidase activity [1] is reported as 230 and the beta-galactosidase activity [2] is reported as < 0.02.

B3: ADGal4-BOI1(375-557) (domain or fragment, S. cerevisiae)
chain: ILDMTEVPNLFADKDIFESPGRAPKPPSYPSPVQPPQSPSFNNRYTNNNARFPPQTTYPPKNKNPTVYSNGLIPNSSTSSDNSTGKFKFPAMNGHDSNSRKTTLTSATIPSINTVNTDESLPAISNISSNATSHHPNRNSVVYNNHKRTESGSSFVDLFNRISMLSPVKSSFDEEETKQPSKA
With B3 the beta-galactosidase activity [2] was < 0.02.

From publication PMC2120828 (The Journal of Cell Biology, 1996)
